Source: US20110206704A1, “Methods and compositions for modulating hepatocyte growth factor activator” (Genentech, Inc., priority 2009, published 2011)
* marks the point of attachment. CH2Cl = ClC*

How the values were obtained:
HGFA = biological target: T1, HGFA (Homo sapiens, UniProt Q04756); test: Ab40 binding to HGFA in the presence of active site inhibitors (surface plasmon resonance); settings: active site inhibitor present; result in words
T1 construct: His6 behind an AAA linker) (C); made in house; host or cells: baculovirus - insect cell expression system
T1 sequence (Q04756 373-655): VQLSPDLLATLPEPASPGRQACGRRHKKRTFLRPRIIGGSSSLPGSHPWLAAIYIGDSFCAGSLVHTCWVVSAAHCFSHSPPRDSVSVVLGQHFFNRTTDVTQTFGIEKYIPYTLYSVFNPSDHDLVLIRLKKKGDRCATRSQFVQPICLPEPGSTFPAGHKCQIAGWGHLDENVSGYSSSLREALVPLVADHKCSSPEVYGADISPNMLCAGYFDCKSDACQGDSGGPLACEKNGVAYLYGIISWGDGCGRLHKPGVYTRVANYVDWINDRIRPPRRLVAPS
Description: FIG. 3: Effects of active site inhibitors on antibody binding to HGFA. (a-b, e-f) Surface plasmon resonance (BIAcore) measurements of binding to immobilized antibodies, Ab40 (a-b) or Ab40.ΔTrp (e-f), after co-injection of HGFA (a,e) or HGFA-KQLR (b, f) complex (“KQLR” disclosed as SEQ ID NO: 21). (c) Competition binding (BIAcore) of HGFA to immobilized Ab40 in presence of different concentrations of KD1. (d) Competition binding ELISA measuring binding of HGFA to biotinylated KD1 in the presence of increasing antibody concentrations.
Antibody reformatting and determination of dissociation rate constants to HGFA: Anti-HGFA Fabs were reformatted into human IgG1 by cloning the VL and VH regions of individual clones into LPG3 and LPG4 vector, respectively (Liang et al, 2007). The full-length antibodies were transiently expressed in Chinese Hamster Ovary cells and purified on a protein-A column. […] Association rates (kon) and dissociation rates (koff) were obtained by using a simple one-to-one Langmuir binding model (BIAEvaluation) and the equilibrium dissociation constants (KD) were calculated (koff/kon). […] The values of Req (20-80% of Rmax) were calculated and plotted individually against C (concentration of HGFA or HGFA-KQLR (“KQLR” disclosed as SEQ ID NO: 21)) using BIAEvaluation Software to determine KD at the steady state analysis. […]

[1] = biological target: HGFA (Val373-Ser655 plus tag …) (human) (UniProt Q04756); test: cell-based or functional assay
[2] = biological target: HGFA (Val373-Ser655 plus tag …) (human) (UniProt Q04756); test: SPR (BIAcore), IgG captured by anti-human IgG, HGFA injected
[3] = biological target: T2, HGFA (Val373-Ser655 plus tag …) (human, UniProt Q04756 373-655); test: SPR (BIAcore)
T2 construct: Made in baculovirus-insect cells, active-site titrated
T2 sequence: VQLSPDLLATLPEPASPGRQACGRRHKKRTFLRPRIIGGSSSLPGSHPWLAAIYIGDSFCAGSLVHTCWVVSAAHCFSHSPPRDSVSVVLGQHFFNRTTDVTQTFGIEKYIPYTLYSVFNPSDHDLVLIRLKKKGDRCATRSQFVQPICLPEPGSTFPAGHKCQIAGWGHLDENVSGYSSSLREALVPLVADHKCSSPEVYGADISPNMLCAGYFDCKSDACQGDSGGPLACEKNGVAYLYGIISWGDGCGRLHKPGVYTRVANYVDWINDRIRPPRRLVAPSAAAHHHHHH

HGFA-KQLR complex [4] = biological target: T3, HGFA-KQLR complex (human, UniProt Q04756 373-655, N-terminal acetyl; C-terminal chloromethyl ketone, reacted with Ser195 and His57 of HGFA; Ser195 and His57 (chymotrypsinogen numbering) covalently linked to Ac-KQLR-cmk); test: SPR (BIAcore)
T3 construct: Made by incubating HGFA with a two fold molar excess of Ac-KQLR-cmk for 2 hours, then size exclusion chromatography

[5] = biological target: T2, HGFA (Val373-Ser655 plus tag …); test: cell-based or functional assay
[6] = biological target: T2, HGFA (Val373-Ser655 plus tag …); test: SPR (BIAcore), IgG captured by anti-human IgG, HGFA injected
HGFA-KQLR complex [7] = biological target: T3, HGFA-KQLR complex; test: SPR (BIAcore), IgG captured by anti-human IgG, HGFA-KQLR complex injected
[8] = biological target: T2, HGFA (Val373-Ser655 plus tag …); test: competition ELISA: plate coated with HGFA, incubated with increasing Ab40, then 1 nM biotinylated KD1 (blocked ligand) detected with streptavidin-HRP
[9] = biological target: T2, HGFA (Val373-Ser655 plus tag …); test: SPR (BIAcore), steady state affinity, IgG captured, HGFA injected
HGFA-KQLR complex [10] = biological target: T3, HGFA-KQLR complex; test: SPR (BIAcore), steady state affinity, IgG captured, HGFA-KQLR complex injected

Ac-KQLR-chloromethyl ketone (Ac-KQLR-CH2Cl; SMILES CC(=O)N[C@@H](CCCCN)C(=O)N[C@@H](CCC(N)=O)C(=O)N[C@@H](CC(C)C)C(=O)N[C@@H](CCCNC(=N)N)C(=O)CCl) [Ac-KQLR-cmk]
interference with binding of Ab40 to HGFA (HGFA): interfered

N=C(N)c1ccccc1 [Benzamidine]
interference with binding of Ab40 to HGFA (HGFA): did not interfere

B1: Ab39 (antibody, from a related filing, human IgG1, V domains shown)
VH: EVQLVESGGGLVQPGGSLRLSCAASGFTFNGTYIHWVRQAPGKGLEWVGGIYPAGGATYYADSVKGRFTISRDNSKNTLYLQMNSLRAEDTAVYYCAKWWAWPAFDYWGQGTLVTVSS
VL: DIQMTQSPSSLSASVGDRVTITCRASQDVSTAVAWYQQKPGKAPKLLIYSASFLYSGVPSRFSGSGSGTDFTLTISSLQPEDFATYYCQQSYTTPPTFGQGTKVEIKR
Km^app of S-2266 hydrolysis at 1 µM Ab39 (control Km=0.25 mM) [1]: 910 µM
Vmax^app of S-2266 hydrolysis at 1 µM Ab39 (control Vmax=0.99 µM pNA/min) [1]: 0.97 µM pNA/min
Kd [2]: 10.3 nM
koff [2]: 0.0053 s⁻¹
kon [2]: 520000 M⁻¹ s⁻¹

B2: Ab40 (antibody, V domains shown)
VH: EVQLVESGGGLVQPGGSLRLSCAASGFTINGTYIHWVRQAPGKGLEWVGGIYPAGGATYYADSVKGRFTISADTSKNTAYLQMNSLRAEDTAVYYCAKWWAWPAFDYWGQGTLVTVSS
VL: DIQMTQSPSSLSASVGDRVTITCRASQDVSTAVAWYQQKPGKAPKLLIYSASFLYSGVPSRFSGSGSGTDFTLTISSLQPEDFATYYCQQSNRAPATFGQGTKVEIKR
fold improvement in binding affinity over Ab39 [3]: 64 fold
fold decrease in affinity compared to HGFA (HGFA-KQLR complex [4]): 8 fold
IC50 (read off the curve), HGFA fractional activity vi/vo on S-2266 [5]: ~8 nM
Kd [6]: 0.16 nM
koff [6]: 0.000175 s⁻¹
kon [6]: 1.08e+06 M⁻¹ s⁻¹
Kd (HGFA-KQLR complex [7]): 1.35 nM
koff (HGFA-KQLR complex [7]): 0.00043 s⁻¹
kon (HGFA-KQLR complex [7]): 320000 M⁻¹ s⁻¹
IC50 (read off the curve) [8]: ~1 nM

B3: Ab40.ΔTrp (antibody, V domains shown)
VH: EVQLVESGGGLVQPGGSLRLSCAASGFTINGTYIHWVRQAPGKGLEWVGGIYPAGGATYYADSVKGRFTISADTSKNTAYLQMNSLRAEDTAVYYCAKWAWPAFDYWGQGTLVTVSS
VL: DIQMTQSPSSLSASVGDRVTITCRASQDVSTAVAWYQQKPGKAPKLLIYSASFLYSGVPSRFSGSGSGTDFTLTISSLQPEDFATYYCQQSNRAPATFGQGTKVEIKR
Kd [9]: 150 nM
Kd (HGFA-KQLR complex [10]): 161 nM
